As usually defined, the Km is the concentration of substrate that gives half-maximal velocity. In general, kcat refers to the maximal rate divided by the concentration of active sites. As usually defined, the kcat/Km is the turnover number divided by the Michaelis constant.

Substrate in series [1]: CC(=O)CC(=O)SCCNC(=O)CCNC(=O)[C@H](O)C(C)(C)COP(=O)(O)OP(=O)(O)OC[C@H]1O[C@@H](n2cnc3c(N)ncnc32)[C@H](O)[C@@H]1OP(=O)(O)O
Briefly: 3-Hydroxyacyl-CoA (β-hydroxybutyryl-CoA) dehydrogenase kinetics (oxidation of NADH at 340 nm). Type of series: biochemical, Escherichia coli. The conditions noted are these: other: NADH dependent reduction, pH 7.5, 0.2 mM NADH, 25° C. From the text:
(§1) For enzyme characterization, E. coli fadA and fadB genes were cloned from MG1655 genomic DNA into the pUCBB-ntH6 vector^43 to yield a constitutively expressed gene with a n-terminal 6 His-tag that can be cleaved by Thrombin. fadA was amplified as two halves with the primers fadANdeI5p:fadAmidrev (1st half) and fadAmidfor:fadANotI3p (2nd half) (Supplementary Table S3).
(§2) fadB was amplified in three parts with fadBNdeI5p:fadBmid1rev (1st part), fadBmid1for:fadBmid2rev (2nd part), and fadBmid2for:fadBNotI3p (3rd part) (Supplementary Table S3). fadA and fadB PCR products sections were combined by overlap extension PCR to yield the whole genes, which were subsequently digested with NdeI and NotI restriction enzymes and ligated into pUCBB-ntH6 that was previously digested with NdeI and NotI to yield pUCBB-ntH6-FadA and pUCBB-ntH6-FadB.
(§3) Cultures for enzymatic assays were grown overnight in 100 mL of LB media at 37° C. in 250 mL baffled flasks (Wheaton Industries, Inc., Millville, N.J.) in E. coli BL21 (DE3) cells induced with either 1 mM IPTG (pCA24N, pTrcHis2A) or 1 mM Arabinose (pUCBB-pBAD) at an OD600˜0.6, or expressed constitutively (pUCBB-ntH6). Reactions were monitored on either a Synergy HT plate reader (BioTek Instruments, Inc., Winooski, Vt.) at 25° C. (for reactions monitored at 300 nm or higher) or in a Biomate 5 Spectrophotometer (Thermo Scientific, Waltham, Mass.) for reactions at 263 nm. […]
(§4) For kinetic characterization, his-tagged proteins of AtoB, FadA, FadB, caHBD, egTER were purified from the B-PER supernatant fractions using Talon Metal Affinity Resin (Clontech Laboratories, Inc., Mountain View, Calif.) using gravity purification. […] Enzyme concentration was established by measuring the absorbance at […] and extinction coefficients predicted for each enzyme by the ProtParam program (web.expasy.org/protparam/).
(§5) For kinetic characterization, an appropriate amount of enzyme was established by checking linear range near predicted KM values. Then, the rates were measured for a range of substrates in order to establish kcat and KM. […]

Substrate in series [2]: CC(=O)CC(=O)SCCNC(=O)CCNC(=O)[C@H](O)C(C)(C)COP(=O)(O)OP(=O)(O)OC[C@H]1O[C@@H](n2cnc3c(N)ncnc32)[C@H](O)[C@@H]1OP(=O)(O)O
In words: purified protein, by the assay type. Type of series: biochemical, Escherichia coli. The conditions noted are these: other: reverse direction, pH 7.5, 2 mM CoA, 25° C.
From the text: as §1, §2, §3, §4, §5

Substrate in series [3]: CC(=O)CC(=O)SCCNC(=O)CCNC(=O)[C@H](O)C(C)(C)COP(=O)(O)OP(=O)(O)OC[C@H]1O[C@@H](n2cnc3c(N)ncnc32)[C@H](O)[C@@H]1OP(=O)(O)O
Briefly: purified protein, by the assay type. The note with it: other: pH 7.5, 200 mM KCl, DTNB, 25° C.

Substrate in series [4]: CC(=O)SCCNC(=O)CCNC(=O)[C@H](O)C(C)(C)COP(=O)(O)OP(=O)(O)OC[C@H]1O[C@@H](n2cnc3c(N)ncnc32)[C@H](O)[C@@H]1OP(=O)(O)O
Briefly: purified protein, by the assay type. The conditions noted are these: other: pH 7.5, 200 mM KCl, DTNB, 25° C.

Substrate in series [5]: CCCC(=O)SCCNC(=O)CCNC(=O)[C@H](O)C(C)(C)COP(=O)(O)OP(=O)(O)OC[C@H]1O[C@@H](n2cnc3c(N)ncnc32)[C@H](O)[C@@H]1OP(=O)(O)O
Briefly: purified protein, by the assay type. The conditions noted are these: other: pH 7.5, 200 mM KCl, DTNB, 25° C.

Substrate in series [6]: C/C=C/C(=O)SCCNC(=O)CCNC(=O)[C@H](O)C(C)(C)COP(=O)(O)OP(=O)(O)OC[C@H]1O[C@@H](n2cnc3c(N)ncnc32)[C@H](O)[C@@H]1OP(=O)(O)O
Briefly: purified protein, by the assay type. The note with it: other: pH 7.5, 200 mM KCl, DTNB, 25° C.

Substrate in series [7]: CC(O)CC(=O)SCCNC(=O)CCNC(=O)[C@H](O)C(C)(C)COP(=O)(O)OP(=O)(O)OC[C@H]1O[C@@H](n2cnc3c(N)ncnc32)[C@H](O)[C@@H]1OP(=O)(O)O
Briefly: purified protein, by the assay type. The note with it: other: pH 7.5, 200 mM KCl, DTNB, 25° C.

Substrate in series [8]: C/C=C/C(=O)SCCNC(=O)CCNC(=O)[C@H](O)C(C)(C)COP(=O)(O)OP(=O)(O)OC[C@H]1O[C@@H](n2cnc3c(N)ncnc32)[C@H](O)[C@@H]1OP(=O)(O)O
In words: Crotonyl-CoA reductase kinetics (loss of NADH absorbance). Type of series: biochemical, Euglena gracilis. The note with it: other: NADH as co-factor, 0.2 mM NADH, pH 7.5, 25° C.
From the text: For AtoB and thioesterase characterization assays, the pCA24N-gene (-gfp) plasmids from the ASKA collection^44 were used. For expression of E. gracilis TER for kinetic characterization, the egTER gene was cloned into pTrcHis2A using the In-Fusion protocol (Clontech Laboratories, Inc., Mountain View, Calif.) following PCR amplification from the aforementioned codon-optimized egTER containing plasmid with the primer pair of F1pTH6hisEgter and R1pTH6hisEgter (Supplementary Table S3).
as §3, §4
For kinetic characterization, an appropriate amount of enzyme was established by checking linear range near predicted KM values. Then, the rates were measured for a range of substrates in order to establish kcat and KM. In the cases of FadB for the crotonase reaction and FadA in the “forward” thiolase reaction coupled with HBD, substrate saturation could not be established, as such, the kcat/KM for the reaction was determined by dividing the linear slope of Velocity vs. [Substrate] by the amount of enzyme used in the assays. […]

B1: E. coli FadB (hydroxyacyl-CoA dehydrogenase / enoyl-CoA hydratase, NP_418288.1), wild type, his-tagged (Escherichia coli K-12) (protein)
chain: MLYKGDTLYLDWLEDGIAELVFDAPGSVNKLDTATVASLGEAIGVLEQQSDLKGLLLRSNKAAFIVGADITEFLSLFLVPEEQLSQWLHFANSVFNRLEDLPVPTIAAVNGYALGGGCECVLATDYRLATPDLRIGLPETKLGIMPGFGGSVRMPRMLGADSALEIIAAGKDVGADQALKIGLVDGVVKAEKLVEGAKAVLRQAINGDLDWKAKRQPKLEPLKLSKIEATMSFTIAKGMVAQTAGKHYPAPITAVKTIEAAARFGREEALNLENKSFVPLAHTNEARALVGIFLNDQYVKGKAKKLTKDVETPKQAAVLGAGIMGGGIAYQSAWKGVPVVMKDINDKSLTLGMTEAAKLLNKQLERGKIDGLKLAGVISTIHPTLDYAGFDRVDIVVEAVVENPKVKKAVLAETEQKVRQDTVLASNTSTIPISELANALERPENFCGMHFFNPVHRMPLVEIIRGEKSSDETIAKVVAWASKMGKTPIVVNDCPGFFVNRVLFPYFAGFSQLLRDGADFRKIDKVMEKQFGWPMGPAYLLDVVGIDTAHHAQAVMAAGFPQRMQKDYRDAIDALFDANRFGQKNGLGFWRYKEDSKGKPKKEEDAAVEDLLAEVSQPKRDFSEEEIIARMMIPMVNEVVRCLEEGIIATPAEADMALVYGLGFPPFHGGAFRWLDTLGSAKYLDMAQQYQHLGPLYEVPEGLRNKARHNEPYYPPVEPARPVGDLKTA
notes: assayed alone without FadA
In the case of B1, in series [1], the Michaelis-Menten constant (Km) is 390.0 ± 19.2 µM, the kcat amounted to 25.9 ± 1.2 s⁻¹ and the kcat/Km came out at 66500 M⁻¹ s⁻¹.

B2: E. coli FadA (3-ketoacyl-CoA thiolase, YP_026272.1), wild type, his-tagged (Escherichia coli K-12) (protein)
chain: MEQVVIVDAIRTPMGRSKGGAFRNVRAEDLSAHLMRSLLARNPALEAAALDDIYWGCVQQTLEQGFNIARNAALLAEVPHSVPAVTVNRLCGSSMQALHDAARMIMTGDAQACLVGGVEHMGHVPMSHGVDFHPGLSRNVAKAAGMMGLTAEMLARMHGISREMQDAFAARSHARAWAATQSAAFKNEIIPTGGHDADGVLKQFNYDEVIRPETTVEALATLRPAFDPVNGMVTAGTSSALSDGAAAMLVMSESRAHELGLKPRARVRSMAVVGCDPSIMGYGPVPASKLALKKAGLSASDIGVFEMNEAFAAQILPCIKDLGLIEQIDEKINLNGGAIALGHPLGCSGARISTTLLNLMERKDVQFGLATMCIGLGQGIATVFERV
notes: assayed alone without FadB
For B2, in series [2], the Km worked out at 422.5 ± 57.3 µM, the turnover number (kcat) came to 0.75 ± 0.09 s⁻¹ and the kcat/Km came to 1770 M⁻¹ s⁻¹.

B3: E. coli YciA (acyl-CoA thioesterase, NP_415769.1), wild type (Escherichia coli K-12) (protein)
chain: MSTTHNVPQGDLVLRTLAMPADTNANGDIFGGWLMSQMDIGGAILAKEIAHGRVVTVRVEGMTFLRPVAVGDVVCCYARCVQKGTTSVSINIEVWVKKVASEPIGQRYKATEALFKYVAVDPEGKPRALPVE
B3: the Km is 875.7 ± 180.9 µM in series [3]; 42.7 ± 1.2 µM in series [4]; 641.8 ± 91.9 µM in series [5]; 1348.8 ± 235.5 µM in series [6]; 353.8 ± 38.8 µM in series [7]. Besides, the kcat in series [3] is 265 ± 54.7 s⁻¹; in series [5] it was 558 ± 79.6 s⁻¹. Moreover, the kcat/Km stood at 302000 M⁻¹ s⁻¹ in series [3] and 869000 M⁻¹ s⁻¹ in series [5].

B4: Euglena gracilis trans-2-enoyl-CoA reductase egTER (AAW66853.1), his-tagged (Euglena gracilis) (protein)
chain: VPQMAEGFSGEATSAWAAAGPQWAAPLVAAASSALALWWWAARRSVRRPLAALAELPTAVTHLAPPMAMFTTTAKVIQPKIRGFICTTTHPIGCEKRVQEEIAYARAHPPTSPGPKRVLVIGCSTGYGLSTRITAAFGYQAATLGVFLAGPPTKGRPAAAGWYNTVAFEKAALEAGLYARSLNGDAFDSTTKARTVEAIKRDLGTVDLVVYSIAAPKRTDPATGVLHKACLKPIGATYTNRTVNTDKAEVTDVSIEPASPEEIADTVKVMGGEDWELWIQALSEAGVLAEGAKTVAYSYIGPEMTWPVYWSGTIGEAKKDVEKAAKRITQQYGCPAYPVVAKALVTQASSAIPVVPLYICLLYRVMKEKGTHEGCIEQMVRLLTTKLYPENGAPIVDEAGRVRVDDWEMAEDVQQAVKDLWSQVSTANLKDISDFAGYQTEFLRLFGFGIDGVDYDQPVDVEADLPSAAQQ
B4: in series [8], the Km came to 98.5 ± 7.7 µM, the kcat was 1.14 ± 0.08 s⁻¹ and the kcat/Km was 11600 M⁻¹ s⁻¹.

These data come from patent US9994881B2, “Functionalized carboxylic acids and alcohols by reverse fatty acid oxidation in engineered microbes” (William Marsh Rice University, priority 2011, dated 2018).
